The target of series [1] is Bovine serum albumin (Bos taurus, UniProt P02769 P02769:25-607). Nature of the series: flow. Particulars: tags: Sigma-Aldrich; bead-immobilised.
In series [2] the target is SARS-CoV-2 spike RBD wild type (SARS-CoV-2, UniProt P0DTC2 SEQ:1-219). Put plainly: flow.

Bovine serum albumin, sequence (P02769 25-607, one chain of several): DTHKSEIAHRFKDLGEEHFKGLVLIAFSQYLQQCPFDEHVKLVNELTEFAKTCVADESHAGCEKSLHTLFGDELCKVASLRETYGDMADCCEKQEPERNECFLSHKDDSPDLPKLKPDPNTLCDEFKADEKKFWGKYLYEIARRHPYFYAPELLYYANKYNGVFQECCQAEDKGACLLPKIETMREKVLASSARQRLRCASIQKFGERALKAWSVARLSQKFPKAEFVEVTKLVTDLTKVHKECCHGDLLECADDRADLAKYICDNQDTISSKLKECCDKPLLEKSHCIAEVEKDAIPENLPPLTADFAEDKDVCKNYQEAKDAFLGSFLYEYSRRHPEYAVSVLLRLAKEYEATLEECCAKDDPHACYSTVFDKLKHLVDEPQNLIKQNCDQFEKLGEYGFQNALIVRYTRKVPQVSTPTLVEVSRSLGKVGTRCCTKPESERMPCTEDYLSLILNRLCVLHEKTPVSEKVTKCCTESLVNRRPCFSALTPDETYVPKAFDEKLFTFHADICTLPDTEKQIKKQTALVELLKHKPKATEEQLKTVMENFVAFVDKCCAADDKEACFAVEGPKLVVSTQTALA

B1: R7-02 hybrid (LGKGDFR peptide-DNA) (ssDNA)
DNA: GGAAGAGATGGCGACACGCAATCGTGGGTTGGGGATATAATGGTAAGCTGATCCTGATGG
modifications: 5'-hexynyl clicked to C-terminal azide-lysine tagged LGKGDFR peptide
B1: in series [1], the binding result is recorded as “no binding”.

B2: Aptamer-1 core (ssDNA)
DNA: TCGAGTGGCTTGTTTGTAATGTAGGGTTCCGGTCGTGGGT
For B2, the binding result in series [2] was “binds”.

B3: CoV2-6C3 (ssDNA)
DNA: CGCAGCACCCAAGAACAAGGACTGCTTAGGATTGCGATAGGTTCGG
B3: the binding result in series [2] is given as “binds”.

B4: CoV2-RBD-1C (printed as CoV2-RBD-QC in Table 1) (ssDNA)
DNA: CAGCACCGACCTTGTGCTTTGGGAGTGCTGGTCCAAGGGCGTTAATGGACA
For B4, in series [2], the binding result is “binds”.

For the origin of these results see US20250376490 (POSTECH RESEARCH AND BUSINESS DEVELOPMENT FOUNDATION, published 2025).
